# Experimental data taken from patent publication US20220153821A1.
# Molecular target: recombinant human tau (human) (UniProt P10636)
# Test: SPR, Biacore T200: antibody captured on anti-mouse CM5 chip, recombinant human tau 10-0.14 nM as analyte, global 1:1 fit
# recombinant human tau (human), sequence (P10636 other isoform, or with tags, fused parts or gaps limits assumed): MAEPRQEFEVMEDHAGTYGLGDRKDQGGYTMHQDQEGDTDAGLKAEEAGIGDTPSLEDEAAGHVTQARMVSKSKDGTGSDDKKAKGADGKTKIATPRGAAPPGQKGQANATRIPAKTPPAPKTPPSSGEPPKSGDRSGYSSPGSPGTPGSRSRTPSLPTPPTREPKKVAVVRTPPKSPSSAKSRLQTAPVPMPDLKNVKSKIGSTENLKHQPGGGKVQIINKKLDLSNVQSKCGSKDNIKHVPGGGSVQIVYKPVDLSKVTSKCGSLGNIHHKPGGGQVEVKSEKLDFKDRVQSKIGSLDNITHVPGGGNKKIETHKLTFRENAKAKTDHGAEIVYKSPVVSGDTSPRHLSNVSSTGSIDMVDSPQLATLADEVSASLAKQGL
Binder,Kd [nM],koff [s⁻¹],kon [M⁻¹ s⁻¹]
"7G6 (antibody, from another filing, V domains shown) VH: QVQLLQPGAELVKPGASVIMSCKASGYTFTTYWITWVKQRPGQGLEWIGDIYPGSSICNYNEKFKSKATLTVDTSSSTAYMQLNSLTSEDSAVYYCAREDGYDAWFAYWGQGTLVTVSA VL: DVLMTQTPLSLPVSLGDQASISCRSSQSILHSNGNTYLEWYLQKPGQSPKLLICKVSNRFSGVPDRFSGSGSGTDFTLKISRVEAEDLGVYYCFQGSHVPFTFGSGTKLEIK",5.77,0.00332,576000

# Molecular target: pHrodo-labeled 4R0N human tau P301L soluble oligomer (human), P10636
# Sequence (P10636 other isoform, or with tags, fused parts or gaps P301L P301L): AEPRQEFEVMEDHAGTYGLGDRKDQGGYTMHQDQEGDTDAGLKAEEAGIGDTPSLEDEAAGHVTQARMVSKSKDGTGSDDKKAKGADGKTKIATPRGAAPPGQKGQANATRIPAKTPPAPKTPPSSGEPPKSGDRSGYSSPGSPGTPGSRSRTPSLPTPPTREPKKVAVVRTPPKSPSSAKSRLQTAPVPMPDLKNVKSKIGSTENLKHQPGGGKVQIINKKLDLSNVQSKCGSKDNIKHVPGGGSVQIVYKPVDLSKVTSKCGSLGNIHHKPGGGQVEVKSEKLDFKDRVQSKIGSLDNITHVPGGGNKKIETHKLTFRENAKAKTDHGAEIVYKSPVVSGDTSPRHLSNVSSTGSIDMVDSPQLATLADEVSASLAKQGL
# Test: cell-based or functional assay
row,Binder,"Inhibition of cell based internalization (at 133 nM antibody concentration, % of inhibition of maximal fluorescent signal) [%]"
1,"Hu3D6VHvb1 / Hu3D6VLvb1 (antibody, V domains shown, here or on the partner: pHrodo-labeled) VH: QVQLQQSGAELVKPGASVKLSCTASGFNIKDYYLHWVKQRPEQGLEWIGWIDPENGDTVYDPKFQGKATITADTSSNTAYLQLSSLTSEDTAVYFCSTLDFWGQGTTLTVSS VL: not shown",80
2,"Hu3D6VHvb6 / Hu3D6VLvb2 (antibody, V domains shown, here or on the partner: pHrodo-labeled) VH: EVQLVQSGAEVVKPGATVKISCKASGFTIKDYYLHWVRQRPGKGLEWIGWIDPEDGETVYDPKFQGRVTITADTSTDTAYMELSSLRSEDTAVYFCSTLDFWGQGTLVTVSS VL: not shown",76.3
3,"Hu3D6VHvb6 / Hu3D6VLvb3 (antibody, V domains shown, here or on the partner: pHrodo-labeled) VH: EVQLVQSGAEVVKPGATVKISCKASGFTIKDYYLHWVRQRPGKGLEWIGWIDPEDGETVYDPKFQGRVTITADTSTDTAYMELSSLRSEDTAVYFCSTLDFWGQGTLVTVSS VL: DVVMTQSPLSLSVTLGEPASISCRSSQSLLDSDGKTYLNWLQQRPGQSPRRLIYLVSKLDSGVPDRFSGSGSGTDFTLKISRVEAEDVGVYYCWQGTHFPYTFGQGTKLEIKR",70
4,"Hu3D6VHvb7 / Hu3D6VLvb2 (antibody, V domains shown, here or on the partner: pHrodo-labeled) VH: EVQLVQSGAEVVKPGATVKISCKASGFTIKDYYLHWVRQRPGKGLEWIGWIDPEDGETVYDPKFQGRVTITADTSTDTAYMELSSLRSEDTAVYYCSTLDFWGQGTLVTVSS VL: not shown",74.5
5,"Hu3D6VHvb7 / Hu3D6VLvb3 (antibody, V domains shown, here or on the partner: pHrodo-labeled) VH: EVQLVQSGAEVVKPGATVKISCKASGFTIKDYYLHWVRQRPGKGLEWIGWIDPEDGETVYDPKFQGRVTITADTSTDTAYMELSSLRSEDTAVYYCSTLDFWGQGTLVTVSS VL: DVVMTQSPLSLSVTLGEPASISCRSSQSLLDSDGKTYLNWLQQRPGQSPRRLIYLVSKLDSGVPDRFSGSGSGTDFTLKISRVEAEDVGVYYCWQGTHFPYTFGQGTKLEIKR",66
6,"Hu3D6VHvb2 / Hu3D6VLvb2 (antibody, V domains shown, here or on the partner: pHrodo-labeled) VH: EVQLVQSGAEVVKPGASVKISCKASGFNIKDYYLHWVRQRPGKGLEWIGWIDPENGDTVYDPKFQGRATITADTSTDTAYLELSSLTSEDTAVYFCSTLDFWGQGTLVTVSS VL: not shown",84.9
7,"Hu3D6VHvb2 / Hu3D6VLvb3 (antibody, V domains shown, here or on the partner: pHrodo-labeled) VH: EVQLVQSGAEVVKPGASVKISCKASGFNIKDYYLHWVRQRPGKGLEWIGWIDPENGDTVYDPKFQGRATITADTSTDTAYLELSSLTSEDTAVYFCSTLDFWGQGTLVTVSS VL: DVVMTQSPLSLSVTLGEPASISCRSSQSLLDSDGKTYLNWLQQRPGQSPRRLIYLVSKLDSGVPDRFSGSGSGTDFTLKISRVEAEDVGVYYCWQGTHFPYTFGQGTKLEIKR",85
8,"Hu3D6VHvb3 / Hu3D6VLvb2 (antibody, V domains shown, here or on the partner: pHrodo-labeled) VH: EVQLVQSGAEVVKPGATVKISCKASGFNIKDYYLHWVRQRPGKGLEWIGWIDPENGDTIYDPKFQGRATITADTSTDTAYMELSSLRSEDTAVYYCSTLDFWGQGTLVTVSS VL: not shown",71.2
9,"Hu3D6VHvb3 / Hu3D6VLvb3 (antibody, V domains shown, here or on the partner: pHrodo-labeled) VH: EVQLVQSGAEVVKPGATVKISCKASGFNIKDYYLHWVRQRPGKGLEWIGWIDPENGDTIYDPKFQGRATITADTSTDTAYMELSSLRSEDTAVYYCSTLDFWGQGTLVTVSS VL: DVVMTQSPLSLSVTLGEPASISCRSSQSLLDSDGKTYLNWLQQRPGQSPRRLIYLVSKLDSGVPDRFSGSGSGTDFTLKISRVEAEDVGVYYCWQGTHFPYTFGQGTKLEIKR",72.1
10,"Hu3D6VHvb4 / Hu3D6VLvb2 (antibody, V domains shown, here or on the partner: pHrodo-labeled) VH: EVQLVQSGAEVVKPGATVKISCKASGFTIKDYYLHWVRQRPGKGLEWIGWIDPENGDTIYDPKFQGRVTITADTSTDTAYMELSSLRSEDTAVYYCSTLDFWGQGTLVTVSS VL: not shown",61
11,"Hu3D6VHvb4 / Hu3D6VLvb3 (antibody, V domains shown, here or on the partner: pHrodo-labeled) VH: EVQLVQSGAEVVKPGATVKISCKASGFTIKDYYLHWVRQRPGKGLEWIGWIDPENGDTIYDPKFQGRVTITADTSTDTAYMELSSLRSEDTAVYYCSTLDFWGQGTLVTVSS VL: DVVMTQSPLSLSVTLGEPASISCRSSQSLLDSDGKTYLNWLQQRPGQSPRRLIYLVSKLDSGVPDRFSGSGSGTDFTLKISRVEAEDVGVYYCWQGTHFPYTFGQGTKLEIKR",49
12,"Hu3D6VHvb5 / Hu3D6VLvb2 (antibody, V domains shown, here or on the partner: pHrodo-labeled) VH: EVQLVQSGAEVVKPGATVKISCKASGFTIKDYYLHWVRQRPGKGLEWIGWIDPEDGETIYDPKFQGRVTITADTSTDTAYMELSSLRSEDTAVYYCSTLDFWGQGTLVTVSS VL: not shown",67.2
13,"Hu3D6VHvb5 / Hu3D6VLvb3 (antibody, V domains shown, here or on the partner: pHrodo-labeled) VH: EVQLVQSGAEVVKPGATVKISCKASGFTIKDYYLHWVRQRPGKGLEWIGWIDPEDGETIYDPKFQGRVTITADTSTDTAYMELSSLRSEDTAVYYCSTLDFWGQGTLVTVSS VL: DVVMTQSPLSLSVTLGEPASISCRSSQSLLDSDGKTYLNWLQQRPGQSPRRLIYLVSKLDSGVPDRFSGSGSGTDFTLKISRVEAEDVGVYYCWQGTHFPYTFGQGTKLEIKR",67.7
